According to US20090029390A1 (KOREA INSTITUTE OF SCIENCE AND TECHNOLOGY, published 2009):
Ends that are not written are not given here. * marks the point of attachment. FITC = O=C1OC2(c3ccc(O)cc3Oc3cc(O)ccc32)c2ccc(NC(=S)*)cc21; Ahx = NCCCCCC(=O)O

Columns and labels:
[1] = target: T1, GST-p300 (truncated p300, amino acids 1-221) (Homo sapiens (Human), UniProt Q09472 300-520); experiment: fluorescence polarization, labeled peptide titrated with GST-p300
T1 construct: Expressed in E. coli BL21 from pGEX-4T-1 and eluted as a GST fusion; GST was not removed; not shown: glutathione S-transferase (GST) tag encoded by the pGEX-4T-1 vector
T1 sequence (Q09472 300-520): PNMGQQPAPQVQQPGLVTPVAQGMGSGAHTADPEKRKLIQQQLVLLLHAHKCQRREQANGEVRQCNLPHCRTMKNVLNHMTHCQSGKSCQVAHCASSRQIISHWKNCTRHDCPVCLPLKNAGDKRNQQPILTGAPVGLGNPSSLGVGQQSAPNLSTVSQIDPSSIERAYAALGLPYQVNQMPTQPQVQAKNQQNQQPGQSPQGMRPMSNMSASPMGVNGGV

[2] = target: T2, GST-CBP (truncated human CBP, amino acids 1-450) (human, UniProt Q92793 1-450); experiment: fluorescence polarization, labeled peptide titrated with GST-CBP 0-3000 nM
T2 construct: Expressed in E. coli BL21 from pGEX-KG and eluted as a GST fusion; GST was not removed; not shown: glutathione S-transferase (GST) tag encoded by the pGEX-KG vector
T2 sequence (Q92793 1-450): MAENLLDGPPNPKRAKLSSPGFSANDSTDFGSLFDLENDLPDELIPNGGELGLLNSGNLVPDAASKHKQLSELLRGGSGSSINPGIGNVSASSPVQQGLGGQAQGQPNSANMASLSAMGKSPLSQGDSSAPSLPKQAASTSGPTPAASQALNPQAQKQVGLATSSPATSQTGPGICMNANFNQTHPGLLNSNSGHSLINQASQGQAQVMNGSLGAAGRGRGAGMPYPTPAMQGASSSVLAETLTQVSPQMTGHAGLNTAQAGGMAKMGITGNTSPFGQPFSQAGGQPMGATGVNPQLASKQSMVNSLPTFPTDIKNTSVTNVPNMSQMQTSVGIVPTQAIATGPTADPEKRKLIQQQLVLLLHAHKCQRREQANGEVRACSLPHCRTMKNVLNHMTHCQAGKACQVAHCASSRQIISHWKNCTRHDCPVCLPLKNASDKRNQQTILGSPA
Protocol: (§1) The binding affinity and features between the HIF-1α peptides and CBP or p300 proteins were analyzed by measuring the fluorescence polarization (FP) values that were changed by the formation of a protein-ligand complex through the interaction between the CBP or p300 proteins and the synthesized peptides that were manufactured by the method as described in above Example 1. The FP values were measured with a fluorescence spectrometer (Perkin-Elmer), which was set to have a slit width of 5 nm and a total integration time of 5 seconds. EBC Buffer (50 mM Tris and 120 mM NaCl; pH 8.0, 0.25% Nonidet P (NP)-40) was used for the binding reaction.
(§2) To compare interactions between the four peptides derived from different regions in HIF-1α C-TAD with CBP or p300, these fluorescein-labeled HIF-1α peptides were mixed with CBP proteins at varying concentrations from 0 to 3000 nM under the conditions of above Example 2-2, and then the FP (fluorescence polarization) values were measured (FIG. 2A).

[3] = target: T2, GST-CBP (truncated human CBP, amino …); experiment: fluorescence polarization, 100 nM labeled peptide titrated with GST-CBP
Protocol: as §1, §2

[4] = target: T1, GST-p300 (truncated p300, amino acids …); experiment: fluorescence polarization competition against F-HIF-1α(786-826) for GST-p300

B1: F-HIF-1α (776-826, SEQ ID NO: 3) (peptide)
peptide: {FITC-Ahx}-SDLACRLLGQSMDESGLPQLTSYDCEVNAPIQGSRNLLQGEELLRALDQVN
modifications: cysteine pairing not given here
notes: Synthetic fluorescein-labeled peptide from the C-TAD of human HIF-1α
Binder B1 has a Kd [1] of 157 nM and a Kd [2] of 196 nM.

B2: F-HIF-1α (776-814, SEQ ID NO: 5) (peptide)
peptide: {FITC-Ahx}-SDLACRLLGQSMDESGLPQLTSYDCEVNAPIQGSRNLLQ
modifications: cysteine pairing not given here
notes: Synthetic fluorescein-labeled peptide
B2: no binding [1]; no binding (tested: 3000 nM) [3].

B3: F-HIF-1α (786-826)[C800A] (peptide)
peptide: {FITC-Ahx}-SMDESGLPQLTSYDAEVNAPIQGSRNLLQGEELLRALDQVN
notes: Position 800 counts on full-length HIF-1α
B3: binds [1].

B4: N803A HIF-1α (786-826) peptide (peptide)
peptide: SMDESGLPQLTSYDCEVAAPIQGSRNLLQGEELLRALDQVN
notes: Unlabeled recombinant peptide with GST removed by thrombin; Position counts on full-length HIF-1α; also called N803A mutant peptide
B4: binds [4].

B5: T796D HIF-1α (786-826) peptide (peptide)
peptide: SMDESGLPQLDSYDCEVNAPIQGSRNLLQGEELLRALDQVN
notes: Unlabeled recombinant peptide with GST removed by thrombin; Position counts on full-length HIF-1α; also called T796D mutant peptide
B5: binds [4].

B6: F-HIF-1α (786-826, SEQ ID NO: 4) (peptide)
peptide: {FITC-Ahx}-SMDESGLPQLTSYDCEVNAPIQGSRNLLQGEELLRALDQVN
notes: Synthetic fluorescein-labeled peptide; also called untreated peptide
Binder B6 has a Kd [1] of 180 nM and a Kd [2] of 175 nM.

B7: F-HIF-1α (788-822, SEQ ID NO: 6) (peptide)
peptide: {FITC-Ahx}-DESGLPQLTSYDCEVNAPIQGSRNLLQGEELLRAL
notes: as for B2
B7: binds [1]; binds [2].
